For the experiment, the target named is T1, Cas7-Cas5-Cas11 fusion subunit of the Synechocystis sp. PCC 6803 Type III-Dv complex (Synechocystis sp. PCC 6803).
T1 construct: Untagged, co-expressed from pPF2434 in E. coli; one copy in the complex; also called Cas7-5-11; Cas5-Cas7-Cas11
T1 chain: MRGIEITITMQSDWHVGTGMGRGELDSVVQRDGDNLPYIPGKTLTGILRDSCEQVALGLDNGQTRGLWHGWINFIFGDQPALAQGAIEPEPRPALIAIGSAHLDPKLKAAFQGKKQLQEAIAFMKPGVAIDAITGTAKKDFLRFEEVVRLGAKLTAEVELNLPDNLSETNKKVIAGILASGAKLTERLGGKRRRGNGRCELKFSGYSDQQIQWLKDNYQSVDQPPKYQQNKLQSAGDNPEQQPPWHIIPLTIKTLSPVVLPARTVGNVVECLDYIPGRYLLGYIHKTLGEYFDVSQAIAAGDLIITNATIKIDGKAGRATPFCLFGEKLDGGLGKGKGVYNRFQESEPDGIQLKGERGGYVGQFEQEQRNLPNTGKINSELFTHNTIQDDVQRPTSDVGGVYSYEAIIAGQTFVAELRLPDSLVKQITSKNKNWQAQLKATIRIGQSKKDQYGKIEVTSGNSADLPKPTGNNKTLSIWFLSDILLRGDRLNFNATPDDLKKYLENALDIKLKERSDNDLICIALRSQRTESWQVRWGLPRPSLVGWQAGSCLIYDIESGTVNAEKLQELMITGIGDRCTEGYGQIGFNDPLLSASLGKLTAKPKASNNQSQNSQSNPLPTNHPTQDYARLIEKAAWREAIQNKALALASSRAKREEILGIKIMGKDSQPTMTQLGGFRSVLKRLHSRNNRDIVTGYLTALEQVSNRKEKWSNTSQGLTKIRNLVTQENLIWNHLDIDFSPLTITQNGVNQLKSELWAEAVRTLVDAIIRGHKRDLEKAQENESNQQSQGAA
Put plainly: co-purification by metal affinity (His6-Cas10) and SEC; SDS-PAGE and MS; membership of one complex. On the procedure: Cells were lysed by a French pressure cell press (American Industry Company) at 10,000 psi, and the lysate was clarified by centrifugation at 15,000×g for 15 min. […] The fractions containing the Type III-Dv complex were pooled and treated with TEV protease and incubated at 4° C. during overnight dialysis in SEC buffer (10 mM HEPES-NaOH, PH 7.5, 100 mM KCl, 5% Glycerol, 1 mM DTT). The sample was applied to a second HisTrap column; however, due to inefficient TEV cleavage, the complex unexpectedly bound the column and eluted with high imidazole. The complex was further purified by size exclusion chromatography (SEC) on a HiLoad 16/600 Superdex 200 column (GE Healthcare) equilibrated in SEC Buffer). Mutant Type III-Dv complexes were similarly expressed and purified, except TEV protease was omitted. Purified complexes were typically concentrated to 1.5 mg/ml using a centrifugal concentrator (Amicon; 100 kDa MWCO), aliquoted, and stored at −80° C.
Denaturing liquid chromatography mass spectrometry (LC-MS) was performed on a Dionex UltiMate 3000 nanoLC system coupled to a Thermo Orbitrap Fusion Lumos Tribrid mass spectrometer (San Jose, Ca). The trap column (3 cm) and analytical column (30 cm) were packed in-house with polymer reverse-phase (PLRP) packing material. […]

B1: Cas10 subunit of the Synechocystis sp. PCC 6803 Type III-Dv CRISPR-Cas complex, with N-terminal His6 tag and TEV site (other)
chain: MFLVLIETSGNQHFIFSTNKLRENIGASELTYLATTEILFQGVDRVFQTNYYDQWSDTNSLNFLADSKLNPAIDDPKNNADIEILLATSGKAIALVKEEGKAKQLIKEVTKQALINAPGLEIGGIYVNCNWQDKLGVAKAVKEAHKQFEVNRAKRAGANGRFLRLPIAAGCSVSELPASDFDYNADGDKIPVSTVSKVKRETAKSAKKRLRSVDGRLVNDLAQLEKSFDELDWLAVVHADGNGLGQILLSLEKYIGEQTNRNYIDKYRRLSLALDNCTINAFKMAIAVFKEDSKKIDLPIVPLILGGDDLTVICRGDYALEFTREFLEAFEGQTETHDDIKVIAQKAFGVDRLSACAGISIIKPHFPFSVAYTLAERLIKSAKEVKQKVTVTNSSPITPFPCSAIDFHILYDSSGIDFDRIREKLRPEDNTELYNRPYVVTAAENLSQAQGYEWSQAHSLQTLADRVSYLRSEDGEGKSALPSSQSHALRTALYLEKNEADAQYSLISQRYKILKNFAEDGENKSLFHLENGKYVTRFLDALDAKDFFANANHKNQGE
notes: Whole gene amplified from Synechocystis genomic DNA and co-expressed in E. coli from pPF2434; The complex also holds a 37-nt crRNA; also called His6-TEV-Cas10; N-His6-tagged Cas10; not shown: TEV cleavage was inefficient, so
In the case of B1, the binding result is recorded as “binds”.

The values above are taken from patent US20250361544A1, “TYPE III-D CRISPR-CAS SYSTEM AND USES THEREOF” (BOARD OF REGENTS, THE UNIVERSITY OF TEXAS SYSTEM, published 2025).
